From article PMC11844729 (Science Advances, 2025)

Molecular target: T1, mN2G^SR (mini-nesprin-2G lacking the transmembrane KASH domain, with C-terminal sfGFP-6xHis) (mouse, UniProt Q6ZWQ0-1)
T1 chain: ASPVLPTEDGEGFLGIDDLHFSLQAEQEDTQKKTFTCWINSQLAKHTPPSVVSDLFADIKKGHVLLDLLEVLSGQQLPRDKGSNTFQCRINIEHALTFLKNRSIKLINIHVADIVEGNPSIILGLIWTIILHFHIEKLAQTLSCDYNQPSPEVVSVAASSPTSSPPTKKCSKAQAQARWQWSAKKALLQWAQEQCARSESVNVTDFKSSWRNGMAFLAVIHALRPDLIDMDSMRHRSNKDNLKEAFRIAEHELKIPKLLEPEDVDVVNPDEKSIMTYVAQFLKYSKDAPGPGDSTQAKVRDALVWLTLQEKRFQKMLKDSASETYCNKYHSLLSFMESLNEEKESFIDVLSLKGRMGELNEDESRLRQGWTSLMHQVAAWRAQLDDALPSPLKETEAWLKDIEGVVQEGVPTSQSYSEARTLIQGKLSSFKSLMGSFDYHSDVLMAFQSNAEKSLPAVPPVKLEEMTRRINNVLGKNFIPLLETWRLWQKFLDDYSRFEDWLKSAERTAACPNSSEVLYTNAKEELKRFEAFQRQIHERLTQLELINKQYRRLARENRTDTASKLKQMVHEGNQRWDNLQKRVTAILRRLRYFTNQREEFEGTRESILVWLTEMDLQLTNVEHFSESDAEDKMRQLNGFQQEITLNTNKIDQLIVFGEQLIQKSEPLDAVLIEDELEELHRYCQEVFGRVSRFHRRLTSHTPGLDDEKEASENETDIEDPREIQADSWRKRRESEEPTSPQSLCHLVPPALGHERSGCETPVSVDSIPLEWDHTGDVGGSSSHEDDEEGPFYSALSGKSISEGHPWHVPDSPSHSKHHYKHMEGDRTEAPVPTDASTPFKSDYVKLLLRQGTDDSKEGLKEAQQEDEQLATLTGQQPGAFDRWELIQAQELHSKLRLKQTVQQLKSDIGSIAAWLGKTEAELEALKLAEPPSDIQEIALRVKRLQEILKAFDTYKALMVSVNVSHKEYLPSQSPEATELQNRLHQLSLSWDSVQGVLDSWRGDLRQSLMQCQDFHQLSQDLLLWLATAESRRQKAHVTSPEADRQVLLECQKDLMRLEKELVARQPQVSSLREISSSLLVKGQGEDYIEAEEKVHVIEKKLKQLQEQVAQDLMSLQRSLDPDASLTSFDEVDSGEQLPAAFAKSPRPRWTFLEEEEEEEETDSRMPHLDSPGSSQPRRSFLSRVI
Assay: TIRF microscopy

B1: kinesin heterotetramer composed of the KIF5B KHC and KLC2 (K5B2) (complex)
chain 1: MADLAECNIKVMCRFRPLNESEVNRGDKYIAKFQGEDTVVIASKPYAFDRVFQSSTSQEQVYNDCAKKIVKDVLEGYNGTIFAYGQTSSGKTHTMEGKLHDPEGMGIIPRIVQDIFNYIYSMDENLEFHIKVSYFEIYLDKIRDLLDVSKTNLSVHEDKNRVPYVKGCTERFVCSPDEVMDTIDEGKSNRHVAVTNMNEHSSRSHSIFLINVKQENTQTEQKLSGKLYLVDLAGSEKVSKTGAEGAVLDEAKNINKSLSALGNVISALAEGSTYVPYRDSKMTRILQDSLGGNCRTTIVICCSPSSYNESETKSTLLFGQRAKTIKNTVCVNVELTAEQWKKKYEKEKEKNKILRNTIQWLENELNRWRNGETVPIDEQFDKEKANLEAFTVDKDITLTNDKPATAIGVIGNFTDAERRKCEEEIAKLYKQLDDKDEEINQQSQLVEKLKTQMLDQEELLASTRRDQDNMQAELNRLQAENDASKEEVKEVLQALEELAVNYDQKSQEVEDKTKEYELLSDELNQKSATLASIDAELQKLKEMTNHQKKRAAEMMASLLKDLAEIGIAVGNNDVKQPEGTGMIDEEFTVARLYISKMKSEVKTMVKRCKQLESTQTESNKKMEENEKELAACQLRISQHEAKIKSLTEYLQNVEQKKRQLEESVDALSEELVQLRAQEKVHEMEKEHLNKVQTANEVKQAVEQQIQSHRETHQKQISSLRDEVEAKAKLITDLQDQNQKMMLEQERLRVEHEKLKATDQEKSRKLHELTVMQDRREQARQDLKGLEETVAKELQTLHNLRKLFVQDLATRVKKSAEIDSDDTGGSAAQKQKISFLENNLEQLTKVHKQLVRDNADLRCELPKLEKRLRATAERVKALESALKEAKENASRDRKRYQQEVDRIKEAVRSKNMARRGHSAQIAKPIRPGQHPAASPTHPSAIRGGGAFVQNSQPVAVRGGGGKQV
chain 2: MAMMVFPREEKLSQDEIVLGTKAVIQGLETLRGEHRALLAPLVAPEAGEAEPGSQERCILLRRSLEAIELGLGEAQVILALSSHLGAVESEKQKLRAQVRRLVQENQWLREELAGTQQKLQRSEQAVAQLEEEKQHLLFMSQIRKLDEDASPNEEKGDVPKDTLDDLFPNEDEQSPAPSPGGGDVSGQHGGYEIPARLRTLHNLVIQYASQGRYEVAVPLCKQALEDLEKTSGHDHPDVATMLNILALVYRDQNKYKEAAHLLNDALAIREKTLGKDHPAVAATLNNLAVLYGKRGKYKEAEPLCKRALEIREKVLGKFHPDVAKQLSNLALLCQNQGKAEEVEYYYRRALEIYATRLGPDDPNVAKTKNNLASCYLKQGKYQDAETLYKEILTRAHEKEFGSVNGDNKPIWMHAEEREESKDKRRDSAPYGEYGSWYKACKVDSPTVNTTLRSLGALYRRQGKLEAAHTLEDCASRNRKQGLDPASQTKVVELLKDGSGRRGDRRSSRDMAGGAGPRSESDLEDVGPTAEWNGDGSGSLRRSGSFGKLRDALRRSSEMLVKKLQGGTPQEPPNPRMKRASSLNFLNKSVEEPTQPGGTGLSDSRTLSSSSMDLSRRSSLVG
Question: How did the “fold recruitment to F-actin against mN2G^CH” value turn out when B1 was run?
Answer: The value was greater than 115 fold.
